The record followed here is patent US20140302043A1.

This assay deals with hemagglutinin (HA) of H1N1 virus strain A/Brazil/1403/2003 (influenza A virus H1N1, A/Brazil/1403/2003). Nature of the assay: cell-based or functional assay.

For “mAb CH65, recombinant intact IgG1 (antibody)”, the mAb minimum effective concentration (EC99, microneutralization on MDCK cells) came to 3.12 µg/mL.
Substance mAb CH67 (antibody) displayed a mAb minimum effective concentration (EC99, microneutralization on MDCK cells) of 0.195 µg/mL.
